Here are results for 20 molecules from patent publication US20080286277A1 (GLYCART BIOTECHNOLOGY, published 2008).

For assay [1], the target named is T1, human epidermal growth factor receptor (EGFR) (human, UniProt P00533 25-1210).
T1 construct: whole, on cells; also called HER-1; ErbB1
Nature of the assay: flow cytometry on A431 cells. On the technique in general: In flow cytometry, cells or beads pass a laser one at a time.
Protocol: The purified, monomeric humanized antibody variants were tested for binding to human epidermal growth factor receptor (EGFR, also referred to in the literature as HER-1 or ErbB1) on the A431 human epidermal cell line, using a flow cytometry-based assay. 200,000 cells (e.g., from human A431 cell line) in 180 μl FACS buffer (PBS containing 2% FCS and 5 mM EDTA) were transferred to 5 ml polystyrene tubes and 20 μl 10 fold concentrated anti-EGFR antibody (primary antibody) samples (1-5000 ng/ml final concentration) or PBS only were added. After gently mixing the samples, the tubes were incubated at 4° C. for 30 min in the dark. Subsequently, samples were washed twice with FACS buffer and pelleted at 300×g for 3 min. Supernatant was aspirated off and cells were taken up in 50 μl FACS buffer and 2 μl secondary antibody (anti-Fc-specific F(ab′)2-FITC fragments (Jackson Immuno Research Laboratories, USA)) was added and the tubes were incubated at 4° C. for 30 min. Samples were washed twice with FACS buffer and taken up in 500 μl of FACS buffer for analysis by Flow Cytometry. Binding was determined by plotting the geometric mean fluorescence against the antibody concentrations.

The target in assay [2] is T1, human epidermal growth factor receptor …. Kind of assay: flow cytometry on A431 cells, light chain paired with I-HHD.

B1: chimeric rat-human ICR62 antibody (antibody, human IgG1, V domains shown)
VH: QVNLLQSGAALVKPGASVKLSCKGSGFTFTDYKIHWVKQSHGKSLEWIGYFNPNSGYSTYNEKFKSKATLTADKSTDTAYMELTSLTSEDSATYYCTRLSPGGYYVMDAWGQGASVTVSS
VL: DIQMTQSPSFLSASVGDRVTINCKASQNINNYLNWYQQKLGEAPKRLIYNTNNLQTGIPSRFSGSGSGTDYTLTISSLQPEDFATYFCLQHNSFPTFGAGTKLELKR
notes: also called ch-ICR62; chimeric ICR62
With B1, in assay [1], the EC50 was around 0.3 µg/mL and the “EC50 fold lower relative to I-HLA4” value was 2 fold.

B2: humanized ICR62 antibody I-HLA2/I-KC (antibody, human IgG1, V domains shown)
VH: QVQLVQSGAEVKKPGASVKVSCKASGFTFTDYYMHWVRQAPGQGLEWMGWINPNSGYSTYNEKFQGQVTISADKSISTAYLQWSSLKASDTAMYYCARLSPGGYYVMDAWGQGTTVTVSS
VL: DIQMTQSPSSLSASVGDRVTITCRASQGINNYLNWYQQKPGKAPKRLIYNTNNLQTGVPSRFSGSGSGTEFTLTISSLQPEDFATYYCLQHNSFPTFGQGTKLEIKR
In turn, B2 displayed an EC50 in assay [1] of around 0.3 µg/mL.

B3: humanized ICR62 antibody I-HHF/I-KC (antibody, human IgG1, V domains shown)
VH: QVQLVQSGAEVKKPGSSVKVSCKGSGFTFTDYKIHWVRQAPGQGLEWMGYFNPNSGYSNYAQKFQGRVTITADKSTSTAYMELSSLRSEDTAVYYCARLSPGGYYVMDAWGQGTTVTVSS
VL: DIQMTQSPSSLSASVGDRVTITCRASQGINNYLNWYQQKPGKAPKRLIYNTNNLQTGVPSRFSGSGSGTEFTLTISSLQPEDFATYYCLQHNSFPTFGQGTKLEIKR
For B3, the binding result in assay [1] was “binds”.

B4: humanized ICR62 antibody I-HHC/I-KB (antibody, human IgG1, V domains shown)
VH: QVQLVQSGAEVKKPGSSVKVSCKGSGFTFTDYKIHWVRQAPGQGLEWMGYFNPNSGYSTYNEKFKSRVTITADKSTSTAYMELSSLRSEDTAVYYCARLSPGGYYVMDAWGQGTTVTVSS
VL: DIQMTQSPSSLSASVGDRVTITCKASQNINNYLNWYQQKPGKAPKRLIYNTNNLQTGVPSRFSGSGSGTEYTLTISSLQPEDFATYYCLQHNSFPTFGQGTKLEIKR
notes: I-HHC was also paired with I-KA and the chimeric light chain
As for B4, in assay [1], the binding result is listed as “binds”.

B5: humanized ICR62 antibody I-HLA5/I-KC (antibody, human IgG1, V domains shown)
VH: QMQLVQSGPEVKKPGTSVKVSCKASGFTFTDYYMHWVRQAPGQGLEWMGWINPNSGYSTYSPSFQGQVTISADKSISTAYLQWSSLKASDTAMYYCARLSPGGYYVMDAWGQGTTVTVSS
VL: DIQMTQSPSSLSASVGDRVTITCRASQGINNYLNWYQQKPGKAPKRLIYNTNNLQTGVPSRFSGSGSGTEFTLTISSLQPEDFATYYCLQHNSFPTFGQGTKLEIKR
Consider B5, for which the “EC50 fold increase relative to ch-ICR62, I-HLA1 and I-HLA2” value (shortened to “EC50 fold increase relative to ch-ICR62”) in assay [1] turned out to be 2 fold.

B6: humanized ICR62 antibody I-HLA1/I-KC (antibody, human IgG1, V domains shown)
VH: QVQLVQSGAEVKKPGASVKVSCKASGFTFTDYYMHWVRQAPGQGLEWMGWINPNSGYSTYSPSFQGQVTISADKSISTAYLQWSSLKASDTAMYYCARLSPGGYYVMDAWGQGTTVTVSS
VL: DIQMTQSPSSLSASVGDRVTITCRASQGINNYLNWYQQKPGKAPKRLIYNTNNLQTGVPSRFSGSGSGTEFTLTISSLQPEDFATYYCLQHNSFPTFGQGTKLEIKR
In assay [1], B6 returned an EC50 of around 0.3 µg/mL.

B7: humanized ICR62 antibody I-HLA9/I-KC (antibody, human IgG1, V domains shown)
VH: EVQLVQSGAEVKKPGESLKISCKGSGYSFTDYKIHWVRQAPGQGLEWMGYFNPNSGYSTYAQKFQGRVTITADKSTSTAYMELSSLRSEDTAVYYCARLSPGGYYVMDAWGQGTTVTVSS
VL: DIQMTQSPSSLSASVGDRVTITCRASQGINNYLNWYQQKPGKAPKRLIYNTNNLQTGVPSRFSGSGSGTEFTLTISSLQPEDFATYYCLQHNSFPTFGQGTKLEIKR
Take B7: the binding result in assay [1] is “binds”.

B8: humanized ICR62 antibody I-HHB/I-KC (not glycoengineered) (antibody, V domains shown)
VH: QVQLVQSGAEVKKPGSSVKVSCKGSGFTFTDYKIHWVRQAPGQGLEWMGYFNPNSGYSTYAQKFQGRVTITADKSTSTAYMELSSLRSEDTAVYYCARLSPGGYYVMDAWGQGTTVTVSS
VL: DIQMTQSPSSLSASVGDRVTITCRASQGINNYLNWYQQKPGKAPKRLIYNTNNLQTGVPSRFSGSGSGTEFTLTISSLQPEDFATYYCLQHNSFPTFGQGTKLEIKR
notes: also called I-HHB/KC
On to B8, for which, in assay [1], the binding result is on record as “binds”.

B9: humanized ICR62 antibody I-HLA7/I-KC (antibody, human IgG1, V domains shown)
VH: QMQLVQSGPEVKKPGTSVKVSCKASGFTFTDYKIHWVRQARGQRLEWIGWINPNSGYSTYNEKFQGQVTISADKSISTAYLQWSSLKASDTAMYYCARLSPGGYYVMDAWGQGTTVTVSS
VL: DIQMTQSPSSLSASVGDRVTITCRASQGINNYLNWYQQKPGKAPKRLIYNTNNLQTGVPSRFSGSGSGTEFTLTISSLQPEDFATYYCLQHNSFPTFGQGTKLEIKR
For the molecule B9, the binding result in assay [1] is “binds”.

B10: humanized ICR62 antibody I-HLA8/I-KC (antibody, human IgG1, V domains shown)
VH: QMQLVQSGPEVKKPGTSVKVSCKASGFTFTDYKIHWVRQAPGQGLEWMGYFNPNSGYSTYAQKFQGRVTITADKSTSTAYMELSSLRSEDTAVYYCARLSPGGYYVMDAWGQGTTVTVSS
VL: DIQMTQSPSSLSASVGDRVTITCRASQGINNYLNWYQQKPGKAPKRLIYNTNNLQTGVPSRFSGSGSGTEFTLTISSLQPEDFATYYCLQHNSFPTFGQGTKLEIKR
As for B10, the “EC50 fold decrease relative to ch-ICR62” value in assay [1] was determined as 2 fold.

B11: humanized ICR62 antibody I-HLA3/I-KC (antibody, human IgG1, V domains shown)
VH: QVQLVQSGAEVKKPGASVKVSCKASGYTFTDYYMHWVRQAPGQGLEWMGWINPNSGYSTYSPSFQGQVTISADKSISTAYLQWSSLKASDTAMYYCARLSPGGYYVMDAWGQGTTVTVSS
VL: DIQMTQSPSSLSASVGDRVTITCRASQGINNYLNWYQQKPGKAPKRLIYNTNNLQTGVPSRFSGSGSGTEFTLTISSLQPEDFATYYCLQHNSFPTFGQGTKLEIKR
B11: the “EC50 fold increase relative to ch-ICR62” value in assay [1] was 2 fold.

B12: humanized ICR62 antibody I-HLA4/I-KC (antibody, human IgG1, V domains shown)
VH: QVQLVQSGAEVKKPGASVKVSCKASGYTFTDYYMHWVRQAPGQGLEWMGWINPNSGYSTYNEKFQGQVTISADKSISTAYLQWSSLKASDTAMYYCARLSPGGYYVMDAWGQGTTVTVSS
VL: DIQMTQSPSSLSASVGDRVTITCRASQGINNYLNWYQQKPGKAPKRLIYNTNNLQTGVPSRFSGSGSGTEFTLTISSLQPEDFATYYCLQHNSFPTFGQGTKLEIKR
Turning to B12, the “EC50 fold increase relative to ch-ICR62” value in assay [1] came to 2 fold.

B13: humanized ICR62 antibody I-HHD/I-KC3 (antibody, human IgG1, V domains shown)
VH: QVQLVQSGAEVKKPGSSVKVSCKASGFTFTDYKIHWVRQAPGQGLEWMGYFNPNSGYSTYAQKFQGRVTITADKSTSTAYMELSSLRSEDTAVYYCARLSPGGYYVMDAWGQGTTVTVSS
VL: DIQMTQSPSSLSASVGDRVTITCRASQGINNYLGWYQQKPGKAPKRLIYNTNNLQTGVPSRFSGSGSGTEFTLTISSLQPEDFATYYCLQHNSFPTFGQGTKLEIKR
For B13, the “EC50 fold increase relative to I-KC (paired with I-HHD)” value in assay [1] came to 10 fold.

B14: humanized ICR62 antibody I-HHG/I-KC (antibody, human IgG1, V domains shown)
VH: QVQLVQSGAEVKKPGSSVKVSCKGSGFTFTDYKIHWVRQAPGQGLEWMGYFNPNSGYATYAQKFQGRVTITADKSTSTAYMELSSLRSEDTAVYYCARLSPGGYYVMDAWGQGTTVTVSS
VL: DIQMTQSPSSLSASVGDRVTITCRASQGINNYLNWYQQKPGKAPKRLIYNTNNLQTGVPSRFSGSGSGTEFTLTISSLQPEDFATYYCLQHNSFPTFGQGTKLEIKR
In the case of B14, in assay [1], the binding result is given as “binds”.

B15: humanized ICR62 antibody I-HHD/I-KC1 (antibody, human IgG1, V domains shown)
VH: QVQLVQSGAEVKKPGSSVKVSCKASGFTFTDYKIHWVRQAPGQGLEWMGYFNPNSGYSTYAQKFQGRVTITADKSTSTAYMELSSLRSEDTAVYYCARLSPGGYYVMDAWGQGTTVTVSS
VL: DIQMTQSPSSLSASVGDRVTITCRASQGIRNYLNWYQQKPGKAPKRLIYNTNNLQTGVPSRFSGSGSGTEFTLTISSLQPEDFATYYCLQHNSFPTFGQGTKLEIKR
As for B15, the binding result in assay [2] is “binds”.

B16: humanized ICR62 antibody I-HLA/I-KA (antibody, human IgG1, V domains shown)
VH: QVQLVQSGAEVKKPGASVKVSCKASGFTFTDYYMHWVRQAPGQGLEWMGWINPNSGYSTYAQKFQGRVTMTADTSISTAYMELSRLRSDDTAVYYCARLSPGGYYVMDAWGQGTTVTVSS
VL: DIQMTQSPSSLSASVGDRVTITCRASQGINNYLNWYQQKPGKAPKRLIYNTNNLQTGVPSRFSGSGSGTEYTLTISSLQPEDFATYYCLQHNSFPTFGQGTKLEIKR
In the case of B16, in assay [1], the binding result was “binds”.

B17: humanized ICR62 antibody I-HLA6/I-KC (antibody, human IgG1, V domains shown)
VH: QMQLVQSGPEVKKPGTSVKVSCKASGFTFTDYYMHWVRQAPGQGLEWMGWINPNSGYSTYNEKFQGQVTISADKSISTAYLQWSSLKASDTAMYYCARLSPGGYYVMDAWGQGTTVTVSS
VL: DIQMTQSPSSLSASVGDRVTITCRASQGINNYLNWYQQKPGKAPKRLIYNTNNLQTGVPSRFSGSGSGTEFTLTISSLQPEDFATYYCLQHNSFPTFGQGTKLEIKR
For the molecule B17, in assay [1], the “EC50 fold increase relative to ch-ICR62” value was 2 fold.

B18: humanized ICR62 antibody I-HHD-10/I-KC (antibody, human IgG1, V domains shown)
VH: QVQLVQSGAEVKKPGSSVKVSCKASGFTFTDYKIHWVRQAPGQGLEWMGYFNPNSGYSTYAQKFQGRVTITADKSTSTAYMELSSLRSEDTAVYYCARLSPGGYYGMDAWGQGTTVTVSS
VL: DIQMTQSPSSLSASVGDRVTITCRASQGINNYLNWYQQKPGKAPKRLIYNTNNLQTGVPSRFSGSGSGTEFTLTISSLQPEDFATYYCLQHNSFPTFGQGTKLEIKR
Take B18: the “EC50 fold increase relative to I-HHD parent construct” value in assay [1] was found to be 10 fold.

B19: humanized ICR62 antibody I-HLA/I-KB (antibody, human IgG1, V domains shown)
VH: QVQLVQSGAEVKKPGASVKVSCKASGFTFTDYYMHWVRQAPGQGLEWMGWINPNSGYSTYAQKFQGRVTMTADTSISTAYMELSRLRSDDTAVYYCARLSPGGYYVMDAWGQGTTVTVSS
VL: DIQMTQSPSSLSASVGDRVTITCKASQNINNYLNWYQQKPGKAPKRLIYNTNNLQTGVPSRFSGSGSGTEYTLTISSLQPEDFATYYCLQHNSFPTFGQGTKLEIKR
Turning to B19, the binding result in assay [1] is “binds”.

B20: humanized ICR62 antibody I-HHD-8/I-KC (antibody, human IgG1, V domains shown)
VH: QVQLVQSGAEVKKPGSSVKVSCKASGFTFTDYKIHWVRQAPGQGLEWMGYFNPNSGTSTYAQKFQGRVTITADKSTSTAYMELSSLRSEDTAVYYCARLSPGGYYVMDAWGQGTTVTVSS
VL: DIQMTQSPSSLSASVGDRVTITCRASQGINNYLNWYQQKPGKAPKRLIYNTNNLQTGVPSRFSGSGSGTEFTLTISSLQPEDFATYYCLQHNSFPTFGQGTKLEIKR
With B20, the “EC50 fold increase relative to I-HHD parent construct” value in assay [1] was found to be 10 fold.

As a reminder, the EC50 is the concentration needed to bring the measured effect to its halfway point. High values mean a less potent agent, low ones a more potent agent.
